Results as given in article doi:10.1101/2022.05.05.490853 (bioRxiv, 2022).
Changes are numbered by the printed parent chain.

B1: antibody in the supernatant of B cell line 15E2 (antibody, V domains shown)
VH: QSLEESGGGLFKPTDTLTLTCTVSGIDLSSYAMIWVRQAPGKGLEWIGYIWSSGRIWYASWAKGRFTISRTSTTVDLKLASPTTEDTATYFCARLWDIWGPGTLVTVSS
VL: AQVLTQTPSSVSAAVGGTVTISCQASQSLYNGVNLAWYQQKPGQPPKLLIFGASNLESGVSSRFRGSGSGTQFTLTISGVQCDDAATYYCLGEFSCSSADCLAFGGGTEVVVK
B2: antibody in the supernatant of B cell line 1D11 (antibody, V domains shown)
VH: QSLVESGGGLVQPEGSLTLTCKASGFSFSSGYDMCWVRQAPGKGLEYIACIDAGDDITHYASWVKGRFTVSKTSSTTVTLQLNSLTVADTATYFCGRFWDLWGPGTLVTVSS
VL: SSVLTQTPSPVSAAVGGTVTINCQSSQSVYDSTWLGWYQQKPGQPPKLLIYKASNLASGVPSRFKGSGSGTHFTLTISDLECDDAATYYCVGGYSGSVDNWAFGGGTEVVVK
B3: antibody in the supernatant of B cell line 28D3 (antibody, V domains shown)
VH: QSVEESGGRLVTPGTPLTLTCTVSGFSLSSYSMGWVRQAPGKGLEYIGMIISNNSTYYASWAKGRITISKTSTTVELKITSPTTEDTATYFCGTGNIWGPGTLVTVSS
VL: AQVLTQTPASVSAAVGGTVTINCQASQSTSNNNALAWFQQKPGQPPKRLIYSALTLDSGVPSRFKGSGSGTHFTLTISGVQCDDAATYYCAGGYDCSSNDCITFGGGTEVVVK
B4: antibody in the supernatant of B cell line 17A8 (antibody, V domains shown)
VH: B3 VH with S27P, G34A, M49F, I51N, S52T, N53D, N54G, T56A
VL: B3 VL with A9S, T29V, A34V, T103A
B5: recombinant monoclonal antibody 15E2 (antibody, V domains shown)
VH: B1 VH
VL: B1 VL
B6: recombinant monoclonal antibody 1D11 (re-cloned, second most abundant VH and VL) (antibody, V domains shown)
VH: B2 VH
VL: B2 VL
B7: recombinant monoclonal antibody 17A8 (antibody, V domains shown)
VH: B3 VH with S27P, G34A, M49F, I51N, S52T, N53D, N54G, T56A
VL: B3 VL with A9S, T29V, A34V, T103A
B8: recombinant monoclonal antibody 28D3 (antibody, V domains shown)
VH: B3 VH
VL: B3 VL

Target: T1, recombinant VlsE protein (vlsE cassette region of B. burgdorferi B31-5A3) (Borreliella burgdorferi B31, clone …, UniProt O06878)
Assay: ELISA

Row | Binder | binding result
1 | B1 | binds
2 | B2 | binds
3 | B3 | binds
4 | B4 | binds

Target: T1, recombinant VlsE protein (vlsE cassette …)
Assay: ELISA
Remark: another data set of the same source

Row | Binder | binding result
5 | B5 | binds
6 | B6 | binds
7 | B7 | binds
8 | B8 | binds
